Measured values taken from article PMC9427789 (2022).

T1: His-SUMO-FGF23 (N-terminal domain of human FGF23, wild type) (human, UniProt Q9GZV9 25-204)
T1 chain: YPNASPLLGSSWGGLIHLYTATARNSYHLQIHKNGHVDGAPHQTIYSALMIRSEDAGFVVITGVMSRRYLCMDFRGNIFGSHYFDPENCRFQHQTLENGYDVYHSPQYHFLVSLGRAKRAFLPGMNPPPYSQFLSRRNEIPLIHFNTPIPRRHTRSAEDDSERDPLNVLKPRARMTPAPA


Biological target: T1, His-SUMO-FGF23 (N-terminal domain of …)
Test: ELISA

| Kd [nM] | Binder |
| --- | --- |
| 0.77 | Burosumab (wild type) (antibody, V domains shown) VH: QVQLVQSGAEVKKPGASVKVSCKASGYTFTNHYMHWVRQAPGQGLEWMGIINPISGSTSNAQKFQGRVTMTRDTSTSTVYMELSSLRSEDTAVYYCARDIVDAFDFWGQGTMVTVSS VL: AIQLTQSPSSLSASVGDRVTITCRASQGISSALVWYQQKPGKAPKLLIYDASSLESGVPSRFSGSGSGTDFTLTISSLQPEDFATYYCQQFNDYFTFGPGTKVDIK |
| 0.65 | Burosumab VH:V97A (antibody, V domains shown) VH: QVQLVQSGAEVKKPGASVKVSCKASGYTFTNHYMHWVRQAPGQGLEWMGIINPISGSTSNAQKFQGRVTMTRDTSTSTVYMELSSLRSEDTAVYYCARDIADAFDFWGQGTMVTVSS VL: AIQLTQSPSSLSASVGDRVTITCRASQGISSALVWYQQKPGKAPKLLIYDASSLESGVPSRFSGSGSGTDFTLTISSLQPEDFATYYCQQFNDYFTFGPGTKVDIK |
| 0.48 | Burosumab VL:A32S (antibody, V domains shown) VH: QVQLVQSGAEVKKPGASVKVSCKASGYTFTNHYMHWVRQAPGQGLEWMGIINPISGSTSNAQKFQGRVTMTRDTSTSTVYMELSSLRSEDTAVYYCARDIVDAFDFWGQGTMVTVSS VL: AIQLTQSPSSLSASVGDRVTITCRASQGISSSLVWYQQKPGKAPKLLIYDASSLESGVPSRFSGSGSGTDFTLTISSLQPEDFATYYCQQFNDYFTFGPGTKVDIK |
| 0.21 | Burosumab variant with combined VH:V97A and VL:A32S mutations (antibody, V domains shown) VH: QVQLVQSGAEVKKPGASVKVSCKASGYTFTNHYMHWVRQAPGQGLEWMGIINPISGSTSNAQKFQGRVTMTRDTSTSTVYMELSSLRSEDTAVYYCARDIADAFDFWGQGTMVTVSS VL: AIQLTQSPSSLSASVGDRVTITCRASQGISSSLVWYQQKPGKAPKLLIYDASSLESGVPSRFSGSGSGTDFTLTISSLQPEDFATYYCQQFNDYFTFGPGTKVDIK |
